Laboratory results: patent publication US20160176973A1 (published 2016)

Key:
Test in all cases: SPR (Biacore)
[1] = biological target: BCMA 101 x CD3
[2] = biological target: BC 244-C6 x CD3
[3] = biological target: BC 247-C3 x CD3

B1: Human BCMA (receptor)
chain (part 1 of 2): MLQMAGQCSQNEYFDSLLHACIPCQLRCSSNTPPLTCQRYCNASVTNSVKGTNASGGGGSEAHKSEIAHRYNDLGEQHFKGLVLIAFSQYLQKCSYDEHAKLVQEVTDFAKTCVADESAANCDKSLHTLFGDKLCAIPNLRENYGELADCCTKQEPERNECFLQHKDDNPSLPPFERPEAEAMCTSFKENPTTFMGHYLHEVARRHPYFYAPELLYYAEQYNEILTQCCAEADKESCLTPKLDGVKEKALVSSVRQRMKCSSMQKFGERAFKAWAVARLSQTFPNADFAEITKLATDLTKVNKECCHGDLLECADDRAELAKYMCENQATISSKLQTCCDKPLLKKAHCLSEVEHDTMPADLPAIAADFVEDQEVCKNYAEAKDVFLGTFLYEYSRRHPDYSVSLLLRLAKKYEATLEKCCAEANPPACYGTVLAEFQPLVEEPKNLVKTNCDLYEKLGEYGFQNAILVRYTQKAPQVSTPTLVEAARNLGRVGTKCCTLPEDQRLPCVEDYLSAILNRVCLLHEKTPVSEHVTKCCSGSLVERRPCFSALTVDETYVPKEFKAETFTFHSDICTLPEKEKQIKKQTALAELVKHKPKATAEQLKTVMDDFAQFLDTCCKAADKDTCFSTEGPNLVTRCKDALA
chain (part 2 of 2): SGHHGGHHGGHH
- Kd [1]: 500 pM
- Kd [2]: 300 pM
- Kd [3]: 400 pM
